Data as given in patent publication US20110300138A1 (published 2011).

B1: K1-18 IgG (antibody, V domains shown)
VH: EVQLVQSGAEVKKPGESLKISCKGSGYSFTNYWIGWVRQMPGKGLEWMGIIYPYDSDTRYSPSFEGQVTISADKSIRTAYLHWSSLKASDTAMYYCVRPRDGSYPYDAFDIWGQGTMVTVSS
VL: EIVLTQSPGTLSLSPGERATLSCRASQSVSNNYLAWYQQKPGQAPRLLIYGASSRATGIPDRFSGSGSGTDFTLTISRLEPEDFAVYYCQHCGSSLRAFGQGTKVEIKR
notes: Human IgG1 kappa purified from hetero-hybridoma supernatant; it is not part of the secreted protein; also called human monoclonal TSHR autoantibody K1-18 (stimulating)
B2: K1-18 Fab (Fab, V domains shown)
VH: B1 VH
VL: B1 VL
B3: K1-70 IgG (antibody, V domains shown)
VH: EVQLVQSGAEVKKPGQSLKISCKASGYSLTDNWIGWVRQKPGKGLEWMGIIYPGDSDTRYSPSFQGQVTISADKSINTAYLQWSSLKASDTAIYYCVGLDWNYNPLRYWGPGTLVTVSS
VL: QSVLTQPPSVSAAPGQKVTISCSGSSSDIGSNYVSWYQQFPGTAPKLLIYDNNKRPSAIPDRFSGSKSGTSATLGITGLQTGDEADYYCGTWDSRLGIAVFGGGTQLTVLG
notes: Human IgG1 lambda purified from hetero-hybridoma supernatant
B4: K1-70 Fab (Fab, V domains shown)
VH: B3 VH
VL: B3 VL

Experiments:
[1] = molecular target: T1, thyroid stimulating hormone receptor (full length human TSHR) (human, UniProt P16473 22-764); assay: competitor ^125I-K1-70 IgG, TSHR coated tubes; 0.03 µg/mL in HBD
T1 construct: Full length TSHR coated onto plastic tubes (TSHR coated tubes, as in WO2004/050708A2); also called TSH receptor
Protocol: (§1) Binding inhibition assays were carried out using TSHR coated tubes as described in WO2004/050708A2. […] After aspiration, the tubes were washed and 100 μL of ¹²⁵I-labelled protein (5×10⁴ cpm) added and incubated for 1 hour at room temperature with shaking. The tubes were then aspirated, washed and counted in a gamma counter. Inhibition of labelled protein binding was calculated as 100×[1−(cpm bound in the presence of test material/cpm bound in the presence of control material)].

[2] = molecular target: T1, thyroid stimulating hormone receptor …; assay: competitor ^125I-K1-70 IgG, TSHR coated tubes; 10 µg/mL in HBD
Protocol: as §1

[3] = molecular target: T1, thyroid stimulating hormone receptor …; assay: competitor ^125I-K1-70 IgG, TSHR coated tubes; 0.001 µg/mL in assay buffer
Protocol: as §1

[4] = molecular target: T1, thyroid stimulating hormone receptor …; assay: competitor ^125I-K1-70 IgG, TSHR coated tubes; 0.01 µg/mL in HBD
Protocol: as §1

[5] = molecular target: T1, thyroid stimulating hormone receptor …; assay: competitor ^125I-K1-70 IgG, TSHR coated tubes; 3 µg/mL in assay buffer
Protocol: as §1

[6] = molecular target: T1, thyroid stimulating hormone receptor …; assay: competitor ^125I-K1-70 IgG, TSHR coated tubes; 30 µg/mL in assay buffer
Protocol: as §1

[7] = molecular target: T1, thyroid stimulating hormone receptor …; assay: competitor ^125I-K1-70 IgG, TSHR coated tubes; 0.3 µg/mL in assay buffer
Protocol: as §1

[8] = molecular target: T1, thyroid stimulating hormone receptor …; assay: competitor ^125I-K1-70 IgG, TSHR coated tubes; 0.03 µg/mL in assay buffer
Protocol: as §1

[9] = molecular target: T1, thyroid stimulating hormone receptor …; assay: competitor ^125I-K1-70 IgG, TSHR coated tubes; 1 µg/mL in assay buffer
Protocol: as §1

[10] = molecular target: T1, thyroid stimulating hormone receptor …; assay: competitor ^125I-K1-70 IgG, TSHR coated tubes; 100 µg/mL in HBD
Protocol: as §1

[11] = molecular target: T1, thyroid stimulating hormone receptor …; assay: competitor ^125I-K1-70 IgG, TSHR coated tubes; 0.01 µg/mL in assay buffer
Protocol: as §1

[12] = molecular target: T1, thyroid stimulating hormone receptor …; assay: competitor ^125I-K1-70 IgG, TSHR coated tubes; 0.1 µg/mL in HBD
Protocol: as §1

[13] = molecular target: T1, thyroid stimulating hormone receptor …; assay: competitor ^125I-K1-70 IgG, TSHR coated tubes; 0.001 µg/mL in HBD
Protocol: as §1

[14] = molecular target: T1, thyroid stimulating hormone receptor …; assay: competitor ^125I-K1-70 IgG, TSHR coated tubes; 10 µg/mL in assay buffer
Protocol: as §1

[15] = molecular target: T1, thyroid stimulating hormone receptor …; assay: competitor ^125I-K1-70 IgG, TSHR coated tubes; 30 µg/mL in HBD
Protocol: as §1

[16] = molecular target: T1, thyroid stimulating hormone receptor …; assay: competitor ^125I-K1-70 IgG, TSHR coated tubes; 100 µg/mL in assay buffer
Protocol: as §1

[17] = molecular target: T1, thyroid stimulating hormone receptor …; assay: competitor ^125I-K1-70 IgG, TSHR coated tubes; 0.3 µg/mL in HBD
Protocol: as §1

[18] = molecular target: T1, thyroid stimulating hormone receptor …; assay: competitor ^125I-K1-70 IgG, TSHR coated tubes; 0.003 µg/mL in HBD
Protocol: as §1

[19] = molecular target: T1, thyroid stimulating hormone receptor …; assay: competitor ^125I-K1-70 IgG, TSHR coated tubes; 0.1 µg/mL in assay buffer
Protocol: as §1

[20] = molecular target: T1, thyroid stimulating hormone receptor …; assay: competitor ^125I-K1-70 IgG, TSHR coated tubes; 1 µg/mL in HBD
Protocol: as §1

[21] = molecular target: T1, thyroid stimulating hormone receptor …; assay: competitor ^125I-K1-70 IgG, TSHR coated tubes; 3 µg/mL in HBD
Protocol: as §1

[22] = molecular target: T1, thyroid stimulating hormone receptor …; assay: competitor ^125I-K1-70 IgG, TSHR coated tubes; 0.003 µg/mL in assay buffer
Protocol: as §1

Row | Binder | Inhibition of binding (%) [1] [%] | Inhibition of binding (%) [2] [%] | Inhibition of binding (%) [3] [%] | Inhibition of binding (%) [4] [%] | Inhibition of binding (%) [5] [%] | Inhibition of binding (%) [6] [%] | Inhibition of binding (%) [7] [%] | Inhibition of binding (%) [8] [%] | Inhibition of binding (%) [9] [%] | Inhibition of binding (%) [10] [%] | Inhibition of binding (%) [11] [%] | Inhibition of binding (%) [12] [%] | Inhibition of binding (%) [13] [%] | Inhibition of binding (%) [14] [%] | Inhibition of binding (%) [15] [%] | Inhibition of binding (%) [16] [%] | Inhibition of binding (%) [17] [%] | Inhibition of binding (%) [18] [%] | Inhibition of binding (%) [19] [%] | Inhibition of binding (%) [20] [%] | other results
1 | B1 | 20 | 92.5 | 7.2 | 3.1 | 90.5 | 91.2 | 86.4 | 53.9 | 89.6 | 93.5 | 30.2 | 48.6 | -3 | 91.8 | 92.2 | 92.9 | 73.9 | -2.7 | 77.9 | 85.8 | Inhibition of binding (%) [21]: 91%; Inhibition of binding (%) [22]: 17%
2 | B2 | 10.2 | 82 | 13.8 | 1.1 | 79.4 | 83.3 | 71.4 | 31.3 | 78.5 | 83.6 | 23.7 | 38.4 | 0.5 | 81.9 | 83.2 | 86 | 60.9 | -3.5 | 62.8 | 75.6 | Inhibition of binding (%) [21]: 80.5%; Inhibition of binding (%) [22]: 15.2%
3 | B3 | 33.6 | 93.1 | 15.3 | 11.4 | 90.7 | 93.1 | 89.2 | 74.2 | 90.8 | 93.6 | 50.9 | 62.8 | -7.6 | 92.3 | 94.3 | 93.8 | 82.7 | 2.2 | 87.1 | 90.4 | Inhibition of binding (%) [21]: 91.7%; Inhibition of binding (%) [22]: 24%
4 | B4 | 49.6 | 90.6 | 12.2 | 21.6 | 89.4 | 90.7 | 88 | 81.7 | 88.3 | 90.8 | 64.8 | 76.5 | -3.6 | 89.8 | 91 | 91.5 | 87.3 | 5.6 | 87.5 | 89.5 | Inhibition of binding (%) [21]: 90.9%; Inhibition of binding (%) [22]: 32.7%
